The record followed here is patent US20190048074A1.

Test [1] deals with full length cynomolgus APLNR (cynomolgus monkey (Macaca fascicularis)). Description: FACS, 10 µg/mL antibody, HEK293/CRE-luc/MfAPLNR cells. (A flow cytometer gives signals particle by particle.)
Test [2] has as its target full-length human APLNR (human) (UniProt P35414). Description: FACS, 10 µg/mL antibody, HEK293/CRE-luc/hAPLNR cells.
The target is the same in test [3]. Description: FACS, 4 µg/mL secondary alone, HEK293/CRE-luc/hAPLNR cells.
The target in test [4] is full length cynomolgus APLNR (cynomolgus monkey (Macaca fascicularis)). Description: FACS, 4 µg/mL secondary alone, HEK293/CRE-luc/MfAPLNR cells.
Test [5] shares this target. Description: FACS, secondary alone, HEK293/CRE-luc/MfAPLNR cells.
Test [6] addresses full-length human APLNR (human) (UniProt P35414). Description: FACS, secondary alone, HEK293/CRE-luc/hAPLNR cells.

Sequence of full-length human APLNR (human) (P35414 whole entry): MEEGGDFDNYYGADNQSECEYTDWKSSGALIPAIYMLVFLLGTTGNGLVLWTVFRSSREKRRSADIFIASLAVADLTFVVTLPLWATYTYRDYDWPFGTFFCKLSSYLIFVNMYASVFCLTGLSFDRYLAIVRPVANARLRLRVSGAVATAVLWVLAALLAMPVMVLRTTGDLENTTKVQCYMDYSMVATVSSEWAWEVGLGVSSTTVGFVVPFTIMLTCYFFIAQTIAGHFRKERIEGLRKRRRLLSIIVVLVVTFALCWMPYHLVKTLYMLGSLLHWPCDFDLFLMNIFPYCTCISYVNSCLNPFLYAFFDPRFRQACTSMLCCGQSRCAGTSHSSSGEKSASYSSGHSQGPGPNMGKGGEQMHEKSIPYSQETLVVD
Sequence of full length cynomolgus APLNR (cynomolgus monkey (Macaca fascicularis)) (O97666 whole entry): as the sequence (P35414 whole entry) above, with F101S, L167F, E194D, I290V counted along it

Turning to mouse IgG (mIgG) control antibody, the Binding Ratio of Geom. Mean to Unstained Cells amounted to 6 fold in test [1] and 7 fold in test [2].

For “Isotype Control (Tables 4 and 5) (antibody)”, the Binding Ratio of Geom. Mean to Unstained Cells in test [1] and in test [2] was 2 fold throughout.

As for “anti-mouse IgG antibody conjugated with Alexa 647”, the Binding Ratio of Geom. Mean to Unstained Cells in test [3] is 4 fold; in test [4], 3 fold.

Take “anti-human IgG antibody conjugated with Alexa 488”: the Binding Ratio of Geom. Mean to Unstained Cells in test [3], in test [5], in test [6] and in test [4] was 2 fold each time.
